Reference: PMC3587421, “Native Tertiary Structure and Nucleoside Modifications Suppress tRNA’s Intrinsic Ability to Activate the Innate Immune Sensor PKR”

Molecular target: PKR dsRBD (P20) (UniProt P19525 1-184)
Assay: EMSA; 0.1 mg/mL herring sperm DNA competitor; Hill 2.9; 25 mM Hepes-KOH pH 7.5, 10 mM NaCl, 5% glycerol, 5 mM DTT, 0.1 mM EDTA, 0.1 mg/mL tRNAPhe or herring sperm DNA; room temperature 10 min; 10% native gel, 0.5x TB, 16 C
Settings: protein: recombinant; chain copies: 2; label: 5'-32P; tRNA fold, monomer, ~20 bp

PKR dsRBD (P20), sequence (P19525 1-184): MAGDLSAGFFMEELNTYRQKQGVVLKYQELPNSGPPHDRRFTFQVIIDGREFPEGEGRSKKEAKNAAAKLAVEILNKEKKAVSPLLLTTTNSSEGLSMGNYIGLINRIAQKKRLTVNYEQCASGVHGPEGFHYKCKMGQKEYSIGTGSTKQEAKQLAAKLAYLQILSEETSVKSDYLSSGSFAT

B1: T7 mt-tRNALeu WT (monomer) (structured_RNA)
RNA: UUAAGAUGGCAGAGCCCGGUAAUCGCAUAAAACUUAAAACUUUACAGUCAGAGGUUCAAUUCCUCUUCUUAACACCA
modifications: none (unmodified transcript)
- Kd: 5.1 µM
